The text below walks through data of publication PMC3288383 (Journal of Molecular Biology, 2012).

The target in assay [1] is T1, Jac1 (wild type), His-tagged (S. cerevisiae, UniProt P53193 11-184).
T1 sequence (looked up): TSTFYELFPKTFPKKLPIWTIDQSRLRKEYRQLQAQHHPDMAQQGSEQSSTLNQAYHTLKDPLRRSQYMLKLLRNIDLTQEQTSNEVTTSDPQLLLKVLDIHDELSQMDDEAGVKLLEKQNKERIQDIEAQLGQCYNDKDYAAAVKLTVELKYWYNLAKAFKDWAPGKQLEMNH
As to the kind of experiment: pull-down.

For assay [2], the target named is T2, Jac1_(L106) (S. cerevisiae, UniProt P53193 11-184, L106 to Ala).
T2 sequence (looked up): T1 sequence (looked up) with L96A
As to the kind of experiment: pull-down.

Assay [3] addresses T3, Isu1His (S. cerevisiae, UniProt Q03020 28-165).
T3 sequence (looked up): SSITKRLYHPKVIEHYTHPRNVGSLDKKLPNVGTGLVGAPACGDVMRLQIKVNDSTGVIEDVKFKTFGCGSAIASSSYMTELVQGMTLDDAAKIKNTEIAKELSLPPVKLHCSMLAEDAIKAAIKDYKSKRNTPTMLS
Description: cell-based or functional assay.

Substitutions are numbered along the chain they refer to. Where “and” joins values, the source holds several entries; their conditions need not be identical. Equal values may be shown once.

B1: Isu1-GST (natural protein, S. cerevisiae, UniProt Q03020 28-165, looked up)
chain: T3 sequence (looked up)
Turning to B1, the Kd – broadly, a measure of binding affinity in units of concentration – in assay [1] was 690 nM and 800 nM; in assay [2], 250 ± 70 nM.

B2: Jac1Y (natural protein, S. cerevisiae, UniProt P53193 11-184, looked up)
chain: T1 sequence (looked up) with Y153A
Consider B2, for which, in assay [3], the “stimulation of Ssq1 ATPase activity: increase of C0.5 against wt” value is roughly 15 fold.

B3: Jac1LLL (natural protein, S. cerevisiae, UniProt P53193 11-184, looked up)
chain: T1 sequence (looked up) with L95A, L96A, L99A
For B3, in assay [3], the “stimulation of Ssq1 ATPase activity: C0.5 compared to the wt control” value is roughly 24 fold.
